Laboratory results as given in US20230272116A1 (Hoffmann-La Roche, published 2023).

T1: Carcinoembryonic antigen (CEA), Carcinoembryonic antigen-related cell adhesion molecule 5 (CEACAM5), on cells (human, UniProt P06731 35-685)
T1 construct: whole, on cells; also called CEA on MKN-45 cells; CEA in BxPC3 tumours
T1 sequence (looked up): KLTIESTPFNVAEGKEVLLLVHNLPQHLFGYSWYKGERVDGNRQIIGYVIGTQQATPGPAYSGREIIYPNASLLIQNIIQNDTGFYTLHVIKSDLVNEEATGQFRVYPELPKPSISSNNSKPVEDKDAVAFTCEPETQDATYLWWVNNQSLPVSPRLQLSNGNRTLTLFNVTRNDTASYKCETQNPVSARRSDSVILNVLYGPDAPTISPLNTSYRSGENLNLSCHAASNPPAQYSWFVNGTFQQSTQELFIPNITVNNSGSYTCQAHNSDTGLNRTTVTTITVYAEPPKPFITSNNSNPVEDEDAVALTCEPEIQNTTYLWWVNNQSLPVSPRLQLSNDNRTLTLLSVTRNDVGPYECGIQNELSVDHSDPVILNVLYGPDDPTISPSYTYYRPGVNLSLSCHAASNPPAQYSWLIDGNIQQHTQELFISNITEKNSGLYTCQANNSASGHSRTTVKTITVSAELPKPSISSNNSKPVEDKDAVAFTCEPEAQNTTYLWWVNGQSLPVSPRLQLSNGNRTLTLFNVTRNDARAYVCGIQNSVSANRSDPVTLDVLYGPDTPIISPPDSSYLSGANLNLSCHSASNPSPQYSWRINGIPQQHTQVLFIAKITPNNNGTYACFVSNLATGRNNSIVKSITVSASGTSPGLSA

B1: P1AF0712 (CEA CH1A1A split DOTA-VL) (antibody, human IgG1, kappa, L234A L235A)
heavy 1: not shown
heavy 2: QVQLVQSGAEVKKPGASVKVSCKASGYTFTEFGMNWVRQAPGQGLEWMGWINTKTGEATYVEEFKGRVTFTTDTSTSTAYMELRSLRSDDTAVYYCARWDFAYYVEAMDYWGQGTTVTVSSASTKGPSVFPLAPSSKSTSGGTAALGCLVKDYFPEPVTVSWNSGALTSGVHTFPAVLQSSGLYSLSSVVTVPSSSLGTQTYICNVNHKPSNTKVDKKVEPKSCDKTHTCPPCPAPEAAGGPSVFLFPPKPKDTLMISRTPEVTCVVVDVSHEDPEVKFNWYVDGVEVHNAKTKPREEQYNSTYRVVSVLTVLHQDWLNGKEYKCKVSNKALGAPIEKTISKAKGQPREPQVCTLPPSRDELTKNQVSLSCAVKGFYPSDIAVEWESNGQPENNYKTTPPVLDSDGSFFLVSKLTVDKSRWQQGNVFSCSVMHEALHNHYTQKSLSLSPGGGGGSGGGGSGGGGSGGGGSQAVVIQESALTTPPGETVTLTCGSSTGAVTASNYANWVQEKPDHLFTGLIGGHNNRPPGVPARFSGSLIGDKAALTIAGTQTEDEAIYFCALWYSDHWVIGGGTKLTVL
light: DIQMTQSPSSLSASVGDRVTITCKASAAVGTYVAWYQQKPGKAPKLLIYSASYRKRGVPSRFSGSGSGTDFTLTISSLQPEDFATYYCHQYYTYPLFTFGQGTKLEIKRTVAAPSVFIFPPSDEQLKSGTASVVCLLNNFYPREAKVQWKVDNALQSGNSQESVTEQDSKDSTYSLSSTLTLSKADYEKHKVYACEVTHQGLSSPVTKSFNRGEC
notes: CH1A1A anti-CEA IgG1 (knob-into-hole); also called CEA specific SPLIT antibody; P6_A
B2: P1AF0713 (CEA CH1A1A split DOTA-VH-AST) (antibody, human IgG1, kappa, L234A L235A)
heavy 1: QVQLVQSGAEVKKPGASVKVSCKASGYTFTEFGMNWVRQAPGQGLEWMGWINTKTGEATYVEEFKGRVTFTTDTSTSTAYMELRSLRSDDTAVYYCARWDFAYYVEAMDYWGQGTTVTVSSASTKGPSVFPLAPSSKSTSGGTAALGCLVKDYFPEPVTVSWNSGALTSGVHTFPAVLQSSGLYSLSSVVTVPSSSLGTQTYICNVNHKPSNTKVDKKVEPKSCDKTHTCPPCPAPEAAGGPSVFLFPPKPKDTLMISRTPEVTCVVVDVSHEDPEVKFNWYVDGVEVHNAKTKPREEQYNSTYRVVSVLTVLHQDWLNGKEYKCKVSNKALGAPIEKTISKAKGQPREPQVCTLPPSRDELTKNQVSLSCAVKGFYPSDIAVEWESNGQPENNYKTTPPVLDSDGSFFLVSKLTVDKSRWQQGNVFSCSVMHEALHNHYTQKSLSLSPG
heavy 2: not shown
light: B1 light
notes: CH1A1A anti-CEA IgG1 (knob-into-hole); also called CEA specific SPLIT antibody; P6_B
B3: CEA-split-DOTAM-VH P1AD8749 (antibody, human IgG1, kappa, L234A L235A)
heavy 1: B2 heavy 1
heavy 2: not shown
light: B1 light
notes: CH1A1A anti-CEA IgG1 (knob-into-hole, PG LALA); Both heavy chains carry VH-CH1, so the light chain pairs with each; also called PRIT Split Antibody with DOTAM-VH; hemibody

How the values were obtained:
[1] = biological target: T1, Carcinoembryonic antigen (CEA), …; assay: flow cytometry on MKN-45 cells, detection with anti-huIgG(H+L)-Alexa488
Protocol: MKN-45 cells were detached from the culture bottle using Trypsin and were counted using a Casy cell counter. After pelleting at 4° C., 300 g the cells were resuspended in FACS Buffer (2.5% FCS in PBS), adjusted to 2.0E+06 cells/mL dispensed to 96-well PP V-bottom-Platte (25 μL/well=5.0E+04 Zellen/well).
Both antibodies were added to the cells either separated followed by buffer or combined and incubated at 4° C. for 1 h. The cells were then washed twice in FACS buffer. After washing, the cells were resuspended in 50 μL FACS-buffer containing secondary antibody (<huIgG(H+L)>-Alexa488, c=10 μg/mL) and incubated 1 h at 4° C. The cells were then washed twice in FACS buffer and resuspended in 70 μl/well FACS buffer for measurement using a FACS Canto (BD, Pharmingen).

[2] = biological target: B2; assay: cell-based or functional assay
[3] = biological target: T1, Carcinoembryonic antigen (CEA), …; assay: FACS on MKN-45 cells; hemibody mixed 1:1 with human ISO control; detection with anti-human IgG(H+L) secondary antibody
Protocol: To assess the functionality of the split antibodies or hemibodies, MKN-45 cells were detached from the culture vessel using accutase at 37° C. for 10 minutes. Subequently, the cells were washed twice in PBS, and seeded into 96 well v-bottom plates to a final density of 4×10⁶ cells/well.
Subsequently, the cells were incubated for 1 h on ice and washed twice in PBS. The cell pellet was resuspended and 40 μl/well of detection reagent was added, either <human IgG(H+L)>FITC, (10 μg/ml) or Pb_Dotam_FITC 1:100=>(10 μg/ml) in PBS/5% FCS. After 60 min incubation on ice, the cells were washed twice in PBS and resuspended in 200 μl PBS/5% FCS for measurement of FITC fluorescence using a FACS canto.

EC50 [1] [µg/mL]	EC50 (read off the curve) [3] [µg/mL]	Binder	EC50 µg/ml absolute, DOTA-FITC (Pb-DOTA-FITC detection on MKN-45 cells, FACS) [2] [µg/mL]
2.7	–	B1	2.4
2.3	–	B2	–
–	~1	B3	–
